From PMC3500399 come the findings set out here.

The assay addresses SCR^AxCxA, split Renilla luciferase fusion (Arabidopsis thaliana) (UniProt Q9M384). In words: split reporter.
UniProt Q9M384, sequence (Q9M384 whole entry, the tested form may be a part): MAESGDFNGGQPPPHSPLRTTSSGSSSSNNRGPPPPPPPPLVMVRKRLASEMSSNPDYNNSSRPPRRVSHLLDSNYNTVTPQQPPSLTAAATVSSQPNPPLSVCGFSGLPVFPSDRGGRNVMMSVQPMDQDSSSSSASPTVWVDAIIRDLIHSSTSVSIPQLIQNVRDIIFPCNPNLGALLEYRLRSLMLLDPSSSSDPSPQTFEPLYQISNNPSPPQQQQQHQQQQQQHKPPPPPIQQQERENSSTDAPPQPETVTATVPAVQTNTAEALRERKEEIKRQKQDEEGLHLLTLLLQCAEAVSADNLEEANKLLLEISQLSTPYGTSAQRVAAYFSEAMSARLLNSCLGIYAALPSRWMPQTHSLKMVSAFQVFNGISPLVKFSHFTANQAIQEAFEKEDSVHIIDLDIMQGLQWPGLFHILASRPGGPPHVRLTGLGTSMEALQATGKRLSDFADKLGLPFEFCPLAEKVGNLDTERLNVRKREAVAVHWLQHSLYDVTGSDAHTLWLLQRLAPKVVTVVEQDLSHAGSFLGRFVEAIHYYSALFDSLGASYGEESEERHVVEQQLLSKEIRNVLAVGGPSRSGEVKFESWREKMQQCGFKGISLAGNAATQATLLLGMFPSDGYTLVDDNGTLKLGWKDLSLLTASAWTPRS

B1: RBR, split Renilla luciferase fusion (natural protein)
chain: MEEVQPPVTPPIEPNGKRSEASLLDICEKVLSLDGSTCDEALKLFTETKRILSASMSNIGSGTREEVERFWFAFILYSVKRLSVRKEADGLSVSGDNEFNLCQILRALKLNIVDFFKELPQFVVKAGSVLGELYGADWENRLQAKEVQANFVHLSLLSKYYKRGFREFFLTYDANAEKNSANSSTYLLDSYRFGWLLFLALRNHAFSRFKDLVTCSNGVVSILAILIIHVPCRFRNFSIQDSSRFVKKGDKGVDLVASLCKIYDASEDELRIVIDKANNLVETILKKKPSPASECQTDKLDNIDPDGLTYFEDLLEETSISTSLITLEKDYYDGKGELDERVFINEEDSLLGSGSLSAGAVNITGVKRKIDALSSPARTFISPLSPHKSPAAKTNGISGATKLAATPVSTAMTTAKWLRTVISPLLPKPSPGLEHFLKSCDRDITNDVTRRAHIILEAIFPNSSLGAQCGGGSLQAVDLMDDIWAEQRRLEACKLYYRVLEAMCKAEAQILHANNLNSLLTNERFHRCMLACSAELVLATHKTITMLFPAVLERTGITAFDLSKVIESFIRHEDSLPRELRRHLNSLEERLLESMVWEKGSSMYNSLIVARPSLALEINQLGLLAEPMPSLDAIAALINFSDGANHASSVQKHETCPGQNGGIRSPKRLCTDYRSILVERNSFTSPVKDRLLALGNVKSKMLPPPLQSAFASPTRPNPGGGGETCAETGINIFFTKINKLAAVRINGMVERLQLSQQIRESVYCFFQHVLAQRTSLLFSRHIDQIILCCFYGVAKISQMSLTFREIIYNYRKQPQCKPLVFRSVYVDALQCRRQGRIGPDHVDIITFYNEIFIPAVKPLLVELGPVRNDRAVEANNKPEGQCPGSPKVSVFPSVPDMSPKKVSAVHNVYVSPLRGSKMDALISHSTKSYYACVGESTHAYQSPSKDLSAINNRLNNSSSNRKRTLNFDAEAGMVSDSMVANSLNLQNQNQNQNGSDASSSGGAAPLKTEPTDS
As to B1, the percent of the RBR-SCR interaction (split Renilla luciferase) turned out to be 11%.
